According to patent US20220387586A1 (Hoffmann-La Roche, published 2022):

B1: humanized BAP050 (LAG525) (antibody, V domains shown)
VH: QIQLVQSGPELKKPGETVKISCKASGFTLTNYGMNWVRQTPGKGLKWMGWINTDTGEPTYADDFKGRFAFSLETSASTASLQINNLKNADTATYFCARNPPYYYGTNNAEAMDYWGQGTTVTVSS
VL: DIQMTQTTSSLSASLGDRVTISCSSSQDISNYLNWYQQKPDGTVKVLIYYTSTLHLGVPSRFSGSGSGTDYSLTISNLELEDIATYYCQQYYNLPWTFGQGTKVEIK
notes: also called aLAG3(BAP050)
B2: PD1-0103-0312 (antibody, human IgG1, V domains shown)
VH: EVQLLESGGGLVQPGGSLRLSCAASGFSFSSYTMSWVRQAPGKGLEWVATISGGGRDIYYPDSVKGRFTISRDNSKNTLYLQMNSLRAEDTAVYYCVLLTGRVYFALDSWGQGTLVTVSS
VL: DIVMTQSPDSLAVSLGERATINCKASESVDTSDNSFIHWYQQKPGQSPKLLIYRSSTLESGVPDRFSGSGSGTDFTLTISSLQAEDVAVYYCQQNYDVPWTFGQGTKVEIK
notes: Humanized; also called PD1-103-0312; PD-0103-0312
B3: PD1-0103-0313 (antibody, human IgG1, V domains shown)
VH: EVQLLESGGGLVQPGGSLRLSCAASGFSFSSYTMSWVRQAPGKGLEWVATISGGGRDIYYPDSVKGRFTISRDNSKNTLYLQMNSLRAEDTAVYYCVLLTGRVYFALDSWGQGTLVTVSS
VL: DVVMTQSPLSLPVTLGQPASISCRASESVDTSDNSFIHWYQQRPGQSPRLLIYRSSTLESGVPDRFSGSGSGTDFTLKISRVEAEDVGVYYCQQNYDVPWTFGQGTKVEIK
notes: Humanized; also called PD1-103-0313; PD-0103-0313
B4: Reference LAG3 antibody BMS-986016 (antibody, V domains shown)
VH: QVQLQQWGAGLLKPSETLSLTCAVYGGSFSDYYWNWIRQPPGKGLEWIGEINHRGSTNSNPSLKSRVTLSLDTSKNQFSLKLRSVTAADTAVYYCAFGYSDYEYNWFDPWGQGTLVTVSS
VL: EIVLTQSPATLSLSPGERATLSCRASQSISSYLAWYQQKPGQAPRLLIYDASNRATGIPARFSGSGSGTDFTLTISSLEPEDFAVYYCQQRSNWPLTFGQGTNLEIK
notes: also called aLAG3(BMS986016)
B5: PD1/LAG3 0750 (bispecific antibody, human IgG1, kappa, L234A L235A)
heavy 1: not shown
heavy 2: EVQLLESGGGLVQPGGSLRLSCAASGFIFDDYTMNWVRQAPGKGLEWVAVISWDGGGTYYTDSVKGRFTISRDDFKNTLYLQMNSLRAEDTAVYYCAKGLTDTTLYGSDYWGQGTLVTVSSASTKGPSVFPLAPSSKSTSGGTAALGCLVEDYFPEPVTVSWNSGALTSGVHTFPAVLQSSGLYSLSSVVTVPSSSLGTQTYICNVNHKPSNTKVDEKVEPKSCDKTHTCPPCPAPEAAGGPSVFLFPPKPKDTLMISRTPEVTCVVVDVSHEDPEVKFNWYVDGVEVHNAKTKPREEQYNSTYRVVSVLTVLHQDWLNGKEYKCKVSNKALGAPIEKTISKAKGQPREPQVCTLPPSRDELTKNQVSLSCAVKGFYPSDIAVEWESNGQPENNYKTTPPVLDSDGSFFLVSKLTVDKSRWQQGNVFSCSVMHEALHNHYTQKSLSLSPGKGGGGSGGGGSEVQLLESGGGLVQPGGSLRLSCAASGFIFDDYTMNWVRQAPGKGLEWVAVISWDGGGTYYTDSVKGRFTISRDDFKNTLYLQMNSLRAEDTAVYYCAKGLTDTTLYGSDYWGQGTLVTVSSASTKGPSVFPLAPSSKSTSGGTAALGCLVEDYFPEPVTVSWNSGALTSGVHTFPAVLQSSGLYSLSSVVTVPSSSLGTQTYICNVNHKPSNTKVDEKVEPKSC
light 1: EVQLLESGGGLVQPGGSLRLSCAASGFSFSSYTMSWVRQAPGKGLEWVATISGGGRDIYYPDSVKGRFTISRDNSKNTLYLQMNSLRAEDTAVYYCVLLTGRVYFALDSWGQGTLVTVSSASVAAPSVFIFPPSDEQLKSGTASVVCLLNNFYPREAKVQWKVDNALQSGNSQESVTEQDSKDSTYSLSSTLTLSKADYEKHKVYACEVTHQGLSSPVTKSFNRGEC
light 2: not shown
notes: 2+1 trans format: one LAG3 Fab N-terminal, one fused to the C-terminus of the Fc hole chain; also called 1 + 2 trans

Legend:
[1] = molecular target: T1, LAG3 on cells (recombinant CHO cells expressing Lag3) (human, UniProt P18627 29-525); assay: cell-based or functional assay
T1 sequence: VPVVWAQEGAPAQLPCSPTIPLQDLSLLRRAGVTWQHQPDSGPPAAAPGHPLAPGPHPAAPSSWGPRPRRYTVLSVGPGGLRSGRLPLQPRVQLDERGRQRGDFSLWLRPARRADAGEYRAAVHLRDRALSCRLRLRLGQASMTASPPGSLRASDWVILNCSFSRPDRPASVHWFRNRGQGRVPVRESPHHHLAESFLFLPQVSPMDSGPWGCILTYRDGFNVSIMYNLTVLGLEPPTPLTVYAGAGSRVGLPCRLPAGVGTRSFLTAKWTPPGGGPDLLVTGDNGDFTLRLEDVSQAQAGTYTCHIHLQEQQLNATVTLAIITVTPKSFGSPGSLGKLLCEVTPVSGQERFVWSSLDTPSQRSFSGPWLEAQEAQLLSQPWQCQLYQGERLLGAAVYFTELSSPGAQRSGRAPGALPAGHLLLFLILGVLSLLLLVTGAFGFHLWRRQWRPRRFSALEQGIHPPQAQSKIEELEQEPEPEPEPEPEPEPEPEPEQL

cynomolgus LAG3 on cells = molecular target: T2, cynomolgus LAG3 on cells (cynomolgus); assay: flow cytometry on activated cynomolgus PBMC, 10 µg/ml (only 2nd Ab (hu): 7.62)
T2 construct: whole, on cells; also called cyno-LAG-3; cynoLAG3
Experimental: Thus, cynomolgus peripheral blood mononuclear cells (PBMC) were prepared from fresh cynomolgus blood and were then activated by CD3/CD28 pre-treatment (1 μg/ml) for 2-3 days. […] After staining, cells were washed two times with PBS/2% FCS and analyzed on a FACS Fortessa (BD).

biotinylated-Lag3 = molecular target: T3, biotinylated-Lag3 (UniProt P18627 23-450, limits assumed, biotinylated); assay: ELISA, inhibition of biotinylated-Lag3 binding to MHC-II on A375 cells (competitor MHC-II)
T3 construct: Probably a human LAG3 ECD construct; also called Lag3 (MHCII/ELISA)
T3 sequence (looked up): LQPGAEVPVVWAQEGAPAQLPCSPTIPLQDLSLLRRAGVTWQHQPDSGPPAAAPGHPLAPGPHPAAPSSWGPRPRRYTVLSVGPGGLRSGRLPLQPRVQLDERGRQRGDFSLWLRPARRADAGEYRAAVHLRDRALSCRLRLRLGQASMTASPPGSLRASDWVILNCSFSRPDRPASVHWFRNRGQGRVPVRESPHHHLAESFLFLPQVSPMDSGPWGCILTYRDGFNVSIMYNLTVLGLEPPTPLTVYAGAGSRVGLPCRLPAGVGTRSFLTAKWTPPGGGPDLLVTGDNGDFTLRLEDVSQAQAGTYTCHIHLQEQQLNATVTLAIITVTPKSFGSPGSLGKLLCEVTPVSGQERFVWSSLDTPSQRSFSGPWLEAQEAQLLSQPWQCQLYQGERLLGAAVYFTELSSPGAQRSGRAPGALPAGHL
Experimental: 25 μl/well of A375 cells (10000 cells/well) were seeded into tissue culture treated 384-well plates (Corning, 3701) and incubated at 37° C. overnight. […] After washing (1×90 μl in PBST) cells were fixed by addition of 30 μl/well glutaraldehyde to a final concentration of 0.05% (Sigma Cat.No: G5882), 10 min at room temperature. After washing (3×90 μl/well with PBST-buffer) 25 μl/well Poly-HRP40-Streptavidin (Fitzgerald, 65R-S104PHRPx) was added in a 1:2000 or 1:8000 dilution and incubated at RT for 1 h. After washing (3×90 μl/well with PBST-buffer) 25 μl/well TMB substrate (Roche, #11835033001) was added and incubated for 2 to 10 min. Measurement took place on a Tecan Safire 2 instrument at 370/492 nm.

hu PD1-ECD [2] = molecular target: T4, hu PD1-ECD (human, UniProt Q15116 25-170); assay: SPR (Biacore T200), antibody captured by anti-human IgG, hu PD1-ECD as analyte, 25 °C, 1:1 Langmuir fit
T4 construct: SPR analyte; also called human PD1-ECD
Experimental: Therefore, an anti-human IgG was immobilized by amine coupling to the surface of a (Biacore) CM5 sensor chip. […] The sensor chip surface was regenerated after each analysis cycle. The equilibrium constant and kinetic rate constants were finally gained by fitting the data to a 1:1 langmuir interaction model.
(§1) The samples were injected for 20 seconds with a concentration of 10 nM and bound to the second flow cell.
Finally the double referenced data was fitted to a 1:1 Langmuir interaction model with the Biacore T200 Evaluation Software.

[3] = molecular target: T5, biotinylated PD1-ECD-AviHis (human, UniProt Q15116 25-170, biotinylated); assay: ELISA on coated biotinylated PD1-ECD-AviHis
T5 construct: also called huPD1; hu PD1; not shown: Avi-His tag

[4] = molecular target: T6, biotinylated cynoPD1-ECD-Biotin (cynomolgus, UniProt B0LAJ3 25-170, biotinylated; the site and any Avi or His tag are not stated in the passages shown); assay: ELISA on cyno PD1; row head 'cynomolgus crossreactivity (EC50 [nm])'
T6 construct: also called cyPD1

[5] = molecular target: T6, biotinylated cynoPD1-ECD-Biotin; assay: ELISA on coated cynoPD1-ECD-Biotin
hu PD1-ECD [6] = molecular target: T4, hu PD1-ECD; assay: SPR; row head 'Affinity KD 37° C.'; first of two numbers
Experimental: as §1

hu PD1-ECD [7] = molecular target: T4, hu PD1-ECD; assay: SPR; row head 'Affinity KD 37° C.'; second of two numbers, equal to the 25 °C value of Table 3
[8] = molecular target: T7, full-length human PD1 on cells (human, UniProt Q15116 25-288); assay: cell ELISA on CHO-K1 cells expressing full-length human PD1
T7 construct: also called CHO-PD1
Experimental: (to avoid internalization). After washing carefully (1×90 μl/well PBST) cells were fixed by adding 30 μl/well 0.05% Glutaraldehyde (Sigma, Cat.No: G5882, 25%) diluted in 1×PBS-buffer and incubated for 10 min at RT. After washing (3×90 μl/well PBST) 25 μl/well secondary antibody was added for detection: goat-anti-human H+L-POD (JIR, JIR109-036-088)/Sheep-anti-mouse-POD (GE NA9310) followed by 1h incubation at RT on shaker. After washing (3×90 μl/well PBST) 25 μl/well TMB substrate solution (Roche 11835033001) was added and incubated until OD 1.0-2.0. Plates were measured at 370/492 nm.

[9] = molecular target: T5, biotinylated PD1-ECD-AviHis; assay: ELISA (hu PD1, as described above)
Experimental: After washing (3×90 μl/well with PBST-buffer) 25 μl/well goat-anti-human H+L-POD (JIR, JIR109-036-088)/Sheep-anti-mouse-POD (GE Healthcare; NA9310) was added in 1:2000/1:1000 dilution and incubated at RT for 1 h on shaker. After washing (3×90 μl/well with PBST-buffer) 25 μl/well TMB substrate (Roche Catalogue No. 11835033001) was added and incubated until OD 2-3. Measurement took place at 370/492 nm.

[10] = molecular target: T1, LAG3 on cells (recombinant CHO cells …); assay: cell-based or functional assay; remark: listed apart in the source
[11] = molecular target: T7, full-length human PD1 on cells; assay: cell-based or functional assay
[12] = molecular target: PD1 on PD1+LAG3+ human U2OS cells (UniProt Q15116 25-288); assay: cellular PD1/LAG3 dimerization assay, 7500 PD1+LAG3+ U2OS cells a well, 20 h at 37 °C, chemoluminescence; the signal needs PD1 and LAG3 bound at once
Experimental: Next, assay plates were equilibrated to room temperature and a substrate/buffer mix (PathHunterFlash detection reagent, Discoverx) was added and again incubated for 4h. For measuring chemoluminescence induced upon simultaneous binding and dimerization a SpectraMax L plate reader (Molecular Devices) was used.

T6 sequence (B0LAJ3 entry or part of it limits assumed): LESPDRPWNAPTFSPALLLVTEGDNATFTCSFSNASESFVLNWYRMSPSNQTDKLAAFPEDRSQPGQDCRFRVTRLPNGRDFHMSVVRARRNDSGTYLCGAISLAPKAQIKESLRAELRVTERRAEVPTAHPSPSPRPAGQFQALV
T4 sequence (Q15116 25-170 limits assumed): as the sequence (B0LAJ3 entry or part of it limits assumed) above, with E2D, A10P, L19V, A35T, R75Q, A144T counted along it
T5 sequence (Q15116 25-170): as the sequence (B0LAJ3 entry or part of it limits assumed) above, with E2D, A10P, L19V, A35T, R75Q, A144T counted along it
T7 sequence (Q15116 25-288 limits assumed): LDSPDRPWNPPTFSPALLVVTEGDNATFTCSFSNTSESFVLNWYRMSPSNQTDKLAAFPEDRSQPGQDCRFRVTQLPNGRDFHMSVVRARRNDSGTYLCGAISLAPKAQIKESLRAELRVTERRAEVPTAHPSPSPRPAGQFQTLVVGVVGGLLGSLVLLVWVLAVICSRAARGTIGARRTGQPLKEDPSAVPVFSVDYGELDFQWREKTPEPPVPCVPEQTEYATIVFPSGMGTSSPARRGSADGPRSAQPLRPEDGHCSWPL
Chain of PD1 on PD1+LAG3+ human U2OS cells (Q15116 25-288): as the sequence (Q15116 25-288 limits assumed) above

Binder | % positive cyno cells (PBLs) after CD3/CD28 activation (cynomolgus LAG3 on cells) [%] | Kd (hu PD1-ECD [2]) [nM] | koff (hu PD1-ECD [2]) [s⁻¹] | kon (hu PD1-ECD [2]) [M⁻¹ s⁻¹] | EC50 [3] [µg/mL] | EC50 [4] [nM] | EC50 [5] [µg/mL] | Kd (hu PD1-ECD [6]) [nM] | Kd (hu PD1-ECD [7]) [nM] | EC50 [8] [µg/mL] | EC50 [9] [nM] | also measured
B1 | 50.7 | – | – | – | – | – | – | – | – | – | – | EC50 [nM] in Jurkat LAG3 + SED + Raji (NFAT luciferase), 2nd assay [1]: 22.6 nM; IC50 (biotinylated-Lag3): 1 nM
B2 | – | 1.8 | 0.000345 | 195000 | 0.011 | 0.08 | 0.0083 | 1.5 | 1.8 | 0.0101 | 0.1 | –
B3 | – | 2.3 | 0.000367 | 160000 | 0.015 | 0.06 | 0.011 | 1.9 | 2.3 | 0.0108 | 0.07 | –
B4 | 18.6 | – | – | – | – | – | – | – | – | – | – | –
B5 | – | – | – | – | – | – | – | – | – | – | – | EC50 [nM], PD-1 & LAG-3 combo reporter assay (NFAT luciferase) [10]: 0.6 nM; EC50 [nM], PD-1 & LAG-3 combo reporter assay (NFAT luciferase) [11]: 0.6 nM; EC50 (read off the curve) [12]: ~0.06 nM
